Measured values as given in article PMC5847377 (Cell, 2017).

Key:
ANG variant H13A = ANG variant H13A (human, UniProt P03950 25-147, H13A); assay: ELISA
[1] = target: Angiogenin (ANG), human recombinant (human, UniProt P03950 25-147); assay: equilibrium dialysis
Angiogenin (ANG), human recombinant, sequence (P03950 25-147): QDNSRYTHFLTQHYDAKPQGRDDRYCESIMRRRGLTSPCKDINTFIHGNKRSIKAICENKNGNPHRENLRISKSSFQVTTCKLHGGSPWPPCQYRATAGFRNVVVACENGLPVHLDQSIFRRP

ANG variant H13A, sequence (P03950 25-147 H37A): as the sequence (P03950 25-147) above, with H13A counted along it

TSSEYDSILVEINKR [PLXNB2 peptide hplb2-15-06]
binding result (ANG variant H13A): binds | binding result [1]: binds
